Measurements reported in patent US20230227537A1 (VIB VZW, published 2023).

Experiments:
[1] = molecular target: Mouse IgG1 Fc fused SARS-CoV-2 RBD (Sino Biological) (SARS-CoV-2; mouse, UniProt P0DTC2 330-518); test: BLI, immobilized RBD-mFc
[2] = molecular target: SARS-CoV-2 spike, full length, on cells or on pseudotyped/authentic virus (SARS-CoV-2, UniProt P0DTC2 14-1273); test: cell-based or functional assay

B1: D72-55: VHH72_h1_E1D_S56A-(G4S)3-VHH72_h3_S56A-GS-hIgG1hinge_EPKSCdel-hIgG1Fc_LALAPG_Kdel (Fc fusion)
chain: DVQLVESGGGLVQPGGSLRLSCAASGRTFSEYAMGWFRQAPGKEREFVATISWSGGATYYTDSVKGRFTISRDNAKNTVYLQMNSLRPEDTAVYYCAAAGLGTVVSEWDYDYDYWGQGTLVTVSSGGGGSGGGGSGGGGSDVQLVESGGGLVQPGGSLRLSCAASGRTFSEYAMGWFRQAPGKEREFVATISWSGGATYYTDSVKGRFTISRDNAKNTVYLQMNSLRPEDTAVYYCAAAGLGTVVSEWDYDYDYWGQGTLVTVSSGSDKTHTCPPCPAPEAAGGPSVFLFPPKPKDTLMISRTPEVTCVVVDVSHEDPEVKFNWYVDGVEVHNAKTKPREEQYNSTYRVVSVLTVLHQDWLNGKEYKCKVSNKALGAPIEKTISKAKGQPREPQVYTLPPSRDELTKNQVSLTCLVKGFYPSDIAVEWESNGQPENNYKTTPPVLDSDGSFFLYSKLTVDKSRWQQGNVFSCSVMHEALHNHYTQKSLSLSPG
notes: Tetravalent; ExpiCHO
fold higher affinity than its bivalent counterpart [1]: > 100 fold | PRNT50, authentic SARS-CoV-2 [2]: 0.02 µg/mL | fold lower PRNT50 than the parental construct [2]: 50 fold
